Test results: patent publication US20250011428A1 (Novartis, published 2025)

Experiments:
hCD3epsilon-FC antigen [1] = biological target: T1, hCD3epsilon-FC antigen (human, UniProt P07766 23-126); assay: SPR Biacore T200; hCD3epsilon-FC amine-coupled on CM5, IgG as analyte; parameters: unit not given here
T1 construct: immobilized by amine coupling on CM5; also called human CD3epsilon

hC1q [2] = biological target: T2, hC1q (human, UniProt P02745 23-245; P02746 28-253; P02747 29-245); assay: SPR Biacore T200; IgG amine-coupled on CM5, hC1q as analyte; response normalized to parental (=100)
T2 sequence (P02745 23-245 limits assumed, chain 1 of 3): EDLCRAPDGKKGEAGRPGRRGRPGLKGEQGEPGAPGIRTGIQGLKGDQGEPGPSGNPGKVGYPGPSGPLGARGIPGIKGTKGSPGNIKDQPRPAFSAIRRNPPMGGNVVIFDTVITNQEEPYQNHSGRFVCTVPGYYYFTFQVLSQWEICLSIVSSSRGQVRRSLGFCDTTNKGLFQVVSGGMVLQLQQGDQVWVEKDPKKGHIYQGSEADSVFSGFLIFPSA
T2 sequence (P02746 28-253 limits assumed, chain 2 of 3): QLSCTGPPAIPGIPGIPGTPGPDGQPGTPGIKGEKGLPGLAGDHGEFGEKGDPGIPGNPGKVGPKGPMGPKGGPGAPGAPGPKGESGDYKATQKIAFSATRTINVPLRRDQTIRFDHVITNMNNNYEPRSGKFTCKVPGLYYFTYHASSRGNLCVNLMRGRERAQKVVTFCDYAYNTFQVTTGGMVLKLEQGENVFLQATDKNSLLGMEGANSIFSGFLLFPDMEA
T2 sequence (P02747 29-245 limits assumed, chain 3 of 3): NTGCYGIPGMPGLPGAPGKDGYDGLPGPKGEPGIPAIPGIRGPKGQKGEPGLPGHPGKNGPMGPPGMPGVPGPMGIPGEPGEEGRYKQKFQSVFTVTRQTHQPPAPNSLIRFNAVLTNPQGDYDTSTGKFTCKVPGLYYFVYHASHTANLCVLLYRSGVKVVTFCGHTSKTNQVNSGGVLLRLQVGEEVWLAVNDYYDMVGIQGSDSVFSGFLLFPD
Procedure: (§1) Kinetics and binding capacity were measured on a BIAcore® T200 instrument (GE Healthcare, Glattbrugg, Switzerland) at room temperature, with proteins diluted in running buffer 10 mM NaP, 150 mM NaCl, 0.05% Tween 20, pH7.6. A CM5 sensor chip (Sensor Chip SA, GE Healthcare Life Sciences) was used to immobilized engineered immunoglobulins by amine coupling. Then, recombinant human hFcγR1a, or recombinant human hFcγR3a (F158V), or recombinant human hFcRn, or hC1q was used as the analyte.
(§2) Binding data were acquired by subsequent injection of analyte dilution series on the reference and measuring flow cells. Zero concentration samples (running buffer only) were included to allow double referencing during data evaluation. For data evaluation, doubled referenced sensorgrams were analyzed and the maximum response reached during the experiment was monitored. Maximum response describes the binding capacity of the surface in terms of the response at saturation. Finally, measured maximum responses were normalized to the one measured using parental immunoglobulin (not engineered).

recombinant human hFcRn = biological target: T3, recombinant human hFcRn (human, UniProt P55899 24-297; P61769 21-119); assay: SPR Biacore T200; IgG amine-coupled on CM5, hFcRn as analyte; response normalized to parental (=100)
T3 construct: FcRn is normally a heterodimer with it
T3 sequence (P55899 24-297 limits assumed, chain 1 of 2): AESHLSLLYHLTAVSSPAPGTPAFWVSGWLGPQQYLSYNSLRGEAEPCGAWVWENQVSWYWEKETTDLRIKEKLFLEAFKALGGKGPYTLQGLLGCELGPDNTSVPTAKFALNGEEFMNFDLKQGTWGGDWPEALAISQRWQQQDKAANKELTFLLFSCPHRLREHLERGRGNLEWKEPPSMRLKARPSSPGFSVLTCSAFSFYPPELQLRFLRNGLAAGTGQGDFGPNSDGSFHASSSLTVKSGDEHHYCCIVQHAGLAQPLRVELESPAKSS
T3 sequence (P61769 21-119 limits assumed, chain 2 of 2): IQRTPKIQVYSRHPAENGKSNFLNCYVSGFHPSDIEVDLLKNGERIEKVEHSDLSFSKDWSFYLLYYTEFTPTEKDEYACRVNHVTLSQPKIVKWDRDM
Procedure: as §1, §2

[3] = biological target: T4, recombinant human hFcγR1a (human, UniProt P12314 16-288, limits assumed); assay: SPR Biacore T200; IgG amine-coupled on CM5, receptor as analyte; response normalized to parental (=100);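 also: measured at room temperature in pH 7.6 phosphate buffer with Tween 20, double-referenced sensorgrams, maximum response taken as binding capacity at saturation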
T4 construct: recombinant, analyte in SPR; also called FcγRI
T4 sequence (P12314 16-288 limits assumed): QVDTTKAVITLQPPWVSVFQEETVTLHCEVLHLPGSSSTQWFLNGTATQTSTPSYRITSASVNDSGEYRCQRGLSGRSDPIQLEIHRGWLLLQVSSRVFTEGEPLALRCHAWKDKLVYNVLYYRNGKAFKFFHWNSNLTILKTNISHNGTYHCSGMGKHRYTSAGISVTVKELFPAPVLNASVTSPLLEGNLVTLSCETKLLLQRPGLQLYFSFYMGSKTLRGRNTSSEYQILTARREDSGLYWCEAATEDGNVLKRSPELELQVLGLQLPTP
Procedure: as §1, §2

[4] = biological target: T5, recombinant human hFcγR3a (F158V) (human, UniProt P08637 17-208); assay: as above
T5 construct: also called FcγRIII
T5 sequence (P08637 17-208 F176V): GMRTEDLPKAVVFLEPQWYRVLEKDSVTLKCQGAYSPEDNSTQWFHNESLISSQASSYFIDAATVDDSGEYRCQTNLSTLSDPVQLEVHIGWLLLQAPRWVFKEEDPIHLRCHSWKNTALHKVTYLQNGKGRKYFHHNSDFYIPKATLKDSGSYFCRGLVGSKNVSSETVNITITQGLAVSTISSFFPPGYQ
Procedure: as §1, §2

hCD3epsilon-FC antigen [5] = biological target: T1, hCD3epsilon-FC antigen; assay: SPR Biacore T200; hCD3epsilon-FC amine-coupled on CM5, IgG as analyte; 1:1 model, apparent KD (bivalent analyte)
Procedure: A CM5 sensor chip (Sensor Chip SA, GE Healthcare Life Sciences) was used to immobilize hCD3epsilon-FC antigen by amine coupling. Then, engineered anti-CD3 hIgG1 were used as the analyte.
Binding data were acquired by subsequent injection of analyte dilution series on the reference and measuring flow cells. Zero concentration samples (running buffer only) were included to allow double referencing during data evaluation. For data evaluation, doubled referenced sensorgrams were analyzed by applying a 1:1 binding model analysis to generate the equilibrium dissociation constant (KD). Binding constant described Table 7 are considered as apparent KD since immunoglobulins used as analyte are bivalent for the immobilized antigen. In addition, maximum response reached during the experiment was monitored. Maximum response describes the binding capacity of the surface in terms of the response at saturation. Finally, measured maximum responses were normalized to the one measured using parental immunoglobulin (not engineered).

[6] = biological target: T5, recombinant human hFcγR3a (F158V); assay: SPR max response, normalized to parental (=100)
Procedure: as §1, §2

hC1q [7] = biological target: T2, hC1q; assay: SPR max response, normalized to parental (=100)
Procedure: as §1, §2

T1 sequence (P07766 23-126 limits assumed): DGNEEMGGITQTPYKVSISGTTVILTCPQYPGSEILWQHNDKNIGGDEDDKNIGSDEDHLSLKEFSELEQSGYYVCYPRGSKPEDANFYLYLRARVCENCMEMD

| Binder | Maximum response at 125 nM hIgG1 (hCD3epsilon-FC antigen [1]) | Maximum response at 20 nM hC1q (RU) (hC1q [2]) | Maximum response at 1840 nM hFcRn (RU) (recombinant human hFcRn) | Maximum response at 100 nM hFcγR1a (RU) [3] | Maximum response at 300 nM hFcγR3a F158V (RU) [4] | Kd (hCD3epsilon-FC antigen [5]) | binding result [6] | binding result (hC1q [7]) |
| --- | --- | --- | --- | --- | --- | --- | --- | --- |
| CD3_WT (antibody, human IgG1, lambda, hIgG1, no Fc mutation; produced in HEK-293T-17SF; also called parental anti-CD3 IgG1; anti-CD3 monospecific hIgG1) heavy: not shown light: QAVVTQEPSLTVSPGGTVTLTCRSSTGAVTTSNYANWVQQKPGQAPRGLIGGTNKRAPWTPARFSGSLLGDKAALTLSGAQPEDEAEYFCALWYSNLWVFGGGTKLTVLGQPKAAPSVTLFPPSSEELQANKATLVCLISDFYPGAVTVAWKADSSPVKAGVETTTPSKQSNNKYAASSYLSLTPEQWKSHRSYSCQVTHEGSTVEKTVAPTECS | 392 | 100 RU | 100 RU | 100 RU | 100 RU | 2.32 nM | – | – |
| CD3_2_YTE (antibody, human IgG1, lambda, hIgG1) heavy: EVQLVESGGGLVQPGGSLKLSCAASGFTFNTYAMNWVRQASGKGLEWVGRIRSKYNNYATYYADSVKDRFTISRDDSKSTLYLQMNSLKTEDTAVYYCVRHGNFGNSYVSWFAYWGQGTLVTVSSASTKGPSVFPLAPSSKSTSGGTAALGCLVKDYFPEPVTVSWNSGALTSGVHTFPAVLQSSGLYSLSSVVTVPSSSLGTQTYICNVNHKPSNTKVDKRVEPKSCDKTHTCPPCPAPELCCHPSVFLFPPKPKDTLYITREPEVTCVVVGLRHEDPEVKFNWYVDGVEVHNAKTKPREEQYCGCYRVVSVLTVLHQDWLNGKEYKCKVSNKALPAPIEKTISKAKGQPREPQVYTLPPSRDELTKNQVSLTCLVKGFYPSDIAVEWESNGQPENNYKTTPPVLDSDGSFFLYSKLTVDKSRWQQGNVFSCSVMHEALHNHYTQKSLSLSPGK light: QAVVTQEPSLTVSPGGTVTLTCRSSTGAVTTSNYANWVQQKPGQAPRGLIGGTNKRAPWTPARFSGSLLGDKAALTLSGAQPEDEAEYFCALWYSNLWVFGGGTKLTVLGQPKAAPSVTLFPPSSEELQANKATLVCLISDFYPGAVTVAWKADSSPVKAGVETTTPSKQSNNKYAASSYLSLTPEQWKSHRSYSCQVTHEGSTVEKTVAPTECS | 371 | – | 340 RU | 3 RU | – | 2.3 nM | no binding (tested: 300 nM hFcγR3a F158V) | – |
| CD3_8_YTE (antibody, human IgG1, lambda, hIgG1) heavy: EVQLVESGGGLVQPGGSLKLSCAASGFTFNTYAMNWVRQASGKGLEWVGRIRSKYNNYATYYADSVKDRFTISRDDSKSTLYLQMNSLKTEDTAVYYCVRHGNFGNSYVSWFAYWGQGTLVTVSSASTKGPSVFPLAPSSKSTSGGTAALGCLVKDYFPEPVTVSWNSGALTSGVHTFPAVLQSSGLYSLSSVVTVPSSSLGTQTYICNVNHKPSNTKVDKRVEPKSCDKTHTCPPCPAPELLCGPSVFLFPPKPKDTLYITREPEVTCVVVDVSHEDPEVKFNWYVDGVEVHNAKTKPREEQYNSTYRVVSVLTVLHQDWLNGKEYKCKVSNKALPAPIEKTISKAKGQPREPQVYTLPPSRDELTKNQVSLTCLVKGFYPSDIAVEWESNGQPENNYKTTPPVLDSDGSFFLYSKLTVDKSRWQQGNVFSCSVMHEALHNHYTQKSLSLSPGK light: QAVVTQEPSLTVSPGGTVTLTCRSSTGAVTTSNYANWVQQKPGQAPRGLIGGTNKRAPWTPARFSGSLLGDKAALTLSGAQPEDEAEYFCALWYSNLWVFGGGTKLTVLGQPKAAPSVTLFPPSSEELQANKATLVCLISDFYPGAVTVAWKADSSPVKAGVETTTPSKQSNNKYAASSYLSLTPEQWKSHRSYSCQVTHEGSTVEKTVAPTECS | – | – | 604 RU | 2 RU | – | – | – | no binding (tested: 20 nM hC1q) |
| CD3_7 (antibody, human IgG1, lambda, hIgG1) heavy: not shown light: QAVVTQEPSLTVSPGGTVTLTCRSSTGAVTTSNYANWVQQKPGQAPRGLIGGTNKRAPWTPARFSGSLLGDKAALTLSGAQPEDEAEYFCALWYSNLWVFGGGTKLTVLGQPKAAPSVTLFPPSSEELQANKATLVCLISDFYPGAVTVAWKADSSPVKAGVETTTPSKQSNNKYAASSYLSLTPEQWKSHRSYSCQVTHEGSTVEKTVAPTECS | 367 | 2 RU | 80 RU | 21 RU | 5 RU | 2.27 nM | – | – |
| CD3_5 (antibody, human IgG1, lambda, hIgG1) heavy: EVQLVESGGGLVQPGGSLKLSCAASGFTFNTYAMNWVRQASGKGLEWVGRIRSKYNNYATYYADSVKDRFTISRDDSKSTLYLQMNSLKTEDTAVYYCVRHGNFGNSYVSWFAYWGQGTLVTVSSASTKGPSVFPLAPSSKSTSGGTAALGCLVKDYFPEPVTVSWNSGALTSGVHTFPAVLQSSGLYSLSSVVTVPSSSLGTQTYICNVNHKPSNTKVDKRVEPKSCDKTHTCPPCPAPELCCGPSVFLFPPKPKDTLMISRTPEVTCVVVDVSHEDPEVKFNWYVDGVEVHNAKTKPREEQYCSCYRVVSVLTVLHQDWLNGKEYKCKVSNKALPAPIEKTISKAKGQPREPQVYTLPPSRDELTKNQVSLTCLVKGFYPSDIAVEWESNGQPENNYKTTPPVLDSDGSFFLYSKLTVDKSRWQQGNVFSCSVMHEALHNHYTQKSLSLSPGK light: QAVVTQEPSLTVSPGGTVTLTCRSSTGAVTTSNYANWVQQKPGQAPRGLIGGTNKRAPWTPARFSGSLLGDKAALTLSGAQPEDEAEYFCALWYSNLWVFGGGTKLTVLGQPKAAPSVTLFPPSSEELQANKATLVCLISDFYPGAVTVAWKADSSPVKAGVETTTPSKQSNNKYAASSYLSLTPEQWKSHRSYSCQVTHEGSTVEKTVAPTECS | 365 | – | – | 7 RU | 22 RU | 3.76 nM | – | no binding (tested: 20 nM hC1q) |
| CD3_6 (antibody, human IgG1, lambda, hIgG1) heavy: not shown light: QAVVTQEPSLTVSPGGTVTLTCRSSTGAVTTSNYANWVQQKPGQAPRGLIGGTNKRAPWTPARFSGSLLGDKAALTLSGAQPEDEAEYFCALWYSNLWVFGGGTKLTVLGQPKAAPSVTLFPPSSEELQANKATLVCLISDFYPGAVTVAWKADSSPVKAGVETTTPSKQSNNKYAASSYLSLTPEQWKSHRSYSCQVTHEGSTVEKTVAPTECS | 338 | 33 RU | 136 RU | 13 RU | 17 RU | 2.38 nM | – | – |
| CD3_11 (antibody, human IgG1, lambda, hIgG1) heavy: not shown light: QAVVTQEPSLTVSPGGTVTLTCRSSTGAVTTSNYANWVQQKPGQAPRGLIGGTNKRAPWTPARFSGSLLGDKAALTLSGAQPEDEAEYFCALWYSNLWVFGGGTKLTVLGQPKAAPSVTLFPPSSEELQANKATLVCLISDFYPGAVTVAWKADSSPVKAGVETTTPSKQSNNKYAASSYLSLTPEQWKSHRSYSCQVTHEGSTVEKTVAPTECS | – | – | 92 RU | 19 RU | – | – | – | no binding (tested: 20 nM hC1q) |
| CD3_10_YTE (antibody, human IgG1, lambda, hIgG1) heavy: EVQLVESGGGLVQPGGSLKLSCAASGFTFNTYAMNWVRQASGKGLEWVGRIRSKYNNYATYYADSVKDRFTISRDDSKSTLYLQMNSLKTEDTAVYYCVRHGNFGNSYVSWFAYWGQGTLVTVSSASTKGPSVFPLAPSSKSTSGGTAALGCLVKDYFPEPVTVSWNSGALTSGVHTFPAVLQSSGLYSLSSVVTVPSSSLGTQTYICNVNHKPSNTKVDKRVEPKSCDKTHTCPPCPAPELLGGPSVFLFPPKPKDTLYITREPEVTCVVVDVSHEDPEVKFNWYVDGVEVHNAKTKPREEQYNSCYRVVSVLTVLHQDWLNGKEYKCKVSNKALPAPIEKTISKAKGQPREPQVYTLPPSRDELTKNQVSLTCLVKGFYPSDIAVEWESNGQPENNYKTTPPVLDSDGSFFLYSKLTVDKSRWQQGNVFSCSVMHEALHNHYTQKSLSLSPGK light: QAVVTQEPSLTVSPGGTVTLTCRSSTGAVTTSNYANWVQQKPGQAPRGLIGGTNKRAPWTPARFSGSLLGDKAALTLSGAQPEDEAEYFCALWYSNLWVFGGGTKLTVLGQPKAAPSVTLFPPSSEELQANKATLVCLISDFYPGAVTVAWKADSSPVKAGVETTTPSKQSNNKYAASSYLSLTPEQWKSHRSYSCQVTHEGSTVEKTVAPTECS | – | – | 280 RU | – | – | – | – | no binding (tested: 20 nM hC1q) |
